B1: Proteasome activator complex subunit 4 (Homo sapiens), Q14997 (parent)
chain: MEPAERAGVGEPPEPGGRPEPGPRGFVPQKEIVYNKLLPYAERLDAESDLQLAQIKCNLGRAVQLQELWPGGLFWTRKLSTYIRLYGRKFSKEDHVLFIKLLYELVSIPKLEISMMQGFARLLINLLKKKELLSRADLELPWRPLYDMVERILYSKTEHLGLNWFPNSVENILKTLVKSCRPYFPADATAEMLEEWRPLMCPFDVTMQKAITYFEIFLPTSLPPELHHKGFKLWFDELIGLWVSVQNLPQWEGQLVNLFARLATDNIGYIDWDPYVPKIFTRILRSLNLPVGSSQVLVPRFLTNAYDIGHAVIWITAMMGGPSKLVQKHLAGLFNSITSFYHPSNNGRWLNKLMKLLQRLPNSVVRRLHRERYKKPSWLTPVPDSHKLTDQDVTDFVQCIIQPVLLAMFSKTGSLEAAQALQNLALMRPELVIPPVLERTYPALETLTEPHQLTATLSCVIGVARSLVSGGRWFPEGPTHMLPLLMRALPGVDPNDFSKCMITFQFIATFSTLVPLVDCSSVLQERNDLTEVERELCSATAEFEDFVLQFMDRCFGLIESSTLEQTREETETEKMTHLESLVELGLSSTFSTILTQCSKEIFMVALQKVFNFSTSHIFETRVAGRMVADMCRAAVKCCPEESLKLFVPHCCSVITQLTMNDDVLNDEELDKELLWNLQLLSEITRVDGRKLLLYREQLVKILQRTLHLTCKQGYTLSCNLLHHLLRSTTLIYPTEYCSVPGGFDKPPSEYFPIKDWGKPGDLWNLGIQWHVPSSEEVSFAFYLLDSFLQPELVKLQHCGDGKLEMSRDDILQSLTIVHNCLIGSGNLLPPLKGEPVTNLVPSMVSLEETKLYTGLEYDLSRENHREVIATVIRKLLNHILDNSEDDTKSLFLIIKIIGDLLQFQGSHKHEFDSRWKSFNLVKKSMENRLHGKKQHIRALLIDRVMLQHELRTLTVEGCEYKKIHQDMIRDLLRLSTSSYSQVRNKAQQTFFAALGAYNFCCRDIIPLVLEFLRPDRQGVTQQQFKGALYCLLGNHSGVCLANLHDWDCIVQTWPAIVSSGLSQAMSLEKPSIVRLFDDLAEKIHRQYETIGLDFTIPKSCVEIAELLQQSKNPSINQILLSPEKIKEGIKRQQEKNADALRNYENLVDTLLDGVEQRNLPWKFEHIGIGLLSLLLRDDRVLPLRAIRFFVENLNHDAIVVRKMAISAVAGILKQLKRTHKKLTINPCEISGCPKPTQIIAGDRPDNHWLHYDSKTIPRTKKEWESSCFVEKTHWGYYTWPKNMVVYAGVEEQPKLGRSREDMTEAEQIIFDHFSDPKFVEQLITFLSLEDRKGKDKFNPRRFCLFKGIFRNFDDAFLPVLKPHLEHLVADSHESTQRCVAEIIAGLIRGSKHWTFEKVEKLWELLCPLLRTALSNITVETYNDWGACIATSCESRDPRKLHWLFELLLESPLSGEGGSFVDACRLYVLQGGLAQQEWRVPELLHRLLKYLEPKLTQVYKNVRERIGSVLTYIFMIDVSLPNTTPTISPHVPEFTARILEKLKPLMDVDEEIQNHVMEENGIGEEDERTQGIKLLKTILKWLMASAGRSFSTAVTEQLQLLPLFFKIAPVENDNSYDELKRDAKLCLSLMSQGLLYPHQVPLVLQVLKQTARSSSWHARYTVLTYLQTMVFYNLFIFLNNEDAVKDIRWLVISLLEDEQLEVREMAATTLSGLLQCNFLTMDSPMQIHFEQLCKTKLPKKRKRDPGSVGDTIPSAELVKRHAGVLGLGACVLSSPYDVPTWMPQLLMNLSAHLNDPQPIEMTVKKTLSNFRRTHHDNWQEHKQQFTDDQLLVLTDLLVSPCYYA

Variants of: B1
Conditions: with h4_human H4C16, P62805

Row | effect of a mutation on the interaction | Variant
1 | disrupting interaction strength | N1716T;F1717S

Source: IntAct's records for PubMed 23706739
